# Results as given in US20220144922A1 (Adimab, published 2022).
# Assays:
# [1] = biological target: T1, postfusion RSV F ectodomain (F ΔFP), subtype A (respiratory syncytial virus subtype A, UniProt P03420 26-109; P03420 147-524); experiment: BLI, IgG on sensor
# T1 construct: extracellular domain; also called Postfusion subtype A
# Description: (§1) IgG binding to DS-Cav1 and FA FP was determined by BLI measurements using a FortéBio Octet HTX instrument (Pall Life Sciences). […] Data was analyzed using the ForteBio Data Analysis Software 7. The data was fit to a 1:1 binding model to calculate an association and dissociation rate, and KD was calculated using the ratio kd/kₐ.
# [2] = biological target: RSV F protein of subtype B strain 18537, on virus (respiratory syncytial virus subtype B …, UniProt P13843 26-574); experiment: cell-based or functional assay
# [3] = biological target: RSV F protein of subtype A strain A2, on virus (respiratory syncytial virus subtype A …, UniProt P03420 26-574); experiment: cell-based or functional assay
# [4] = biological target: T2, prefusion-stabilized RSV F ectodomain (DS-Cav1), subtype B (respiratory syncytial virus subtype B); experiment: BLI, IgG on sensor
# T2 construct: extracellular domain; also called Prefusion subtype B
# Description: as §1
Binder,Kd [1] [nM],Neut IC50 (ug/ml) subtype B [2] [µg/mL],Neut IC50 (ug/ml) subtype A [3] [µg/mL],Kd [4] [nM]
"ADI-15610 (antibody, V domains shown, IgG; also called Antibody Number 175) VH: EVQLLESGAEVKKPGSSVKVSCKASGGTFSSYAITWVRQAPGQGLEWMGGIIPILGTTTYAQRFQGRVTITADKSTTTAYMELSRLRSEDTAVYYCAKTVSQYPNTYNYGMDVWGQGTTVTVSS VL: EIVMTQSPSSLSASVGDRVTITCRASQSVSIYLNWYQQKPGKTPELLIYGASRLQSGVPSRFSGSGSGTDFTLTISSLQPEDFATYYCLQTYSTPLTFGQGTKVEIK",0.417,> 10,0.727,–
"ADI-15602 (antibody, V domains shown, IgG) VH: EVQLLESGGGVVQPGKSLRLSCVASGFTFGDYGMHWVRQAPGKGLEWVAVISDGGSTKYYADSVKGRFTIARDNSKNTLNLQMNSLRAEDTAVYYCAKDLAWIFGLGASYMDVWGQGTLVTVSS VL: DIQLTQSPGTLSLSPGERATLSCRASQTVSSSYLAWYQQKPGQAPRLLIYDASSRATGIPDRFSGSGSGTDFTLTISRLEPEDFAVYYCQQYGSSPFGLTFGGGTKVEIK",–,0.015,0.046,0.807
"ADI-15609 (antibody, V domains shown, IgG) VH: EVQLLESGGGVVQPGRSLKLSCAASGFSFTTDVMHWIRQAPGKGLEWVAVISTDGANSYYAESVKGRFTISRDNSKNTLFLQMSSLRAEDTAVYYCASQGYHYVNMADVGVPSFDHWGQGTLVTVSS VL: ETTLTQSPSSLSASVGDRVTITCRARRSIDNYLNWYQHKPGTAPKLLIYAVSSLPSGVPSRFSGSGSGADFTLTISSLQPEDLATYYCQQSYMTPPTFGQGTKLEIK",–,> 10,0.022,0.628
"ADI-15662 (antibody, V domains shown, IgG) VH: QVQLQESGPGLVKPSETLSLTCTVSGGSVSRGSYYWTWIRQPPGKGLEWIGYIYYSGSTNYNPSLKSRVTISVDTSKNQFSLKLSSVTAADTAVYYCARDIGEDKYGTYYGMDVWGQGTTVTVSS VL: EIVMTQSPATLSLSPGERATLSCRASQSVSSSLAWYQQKPGQAPRLLIYGASNRATGIPARFSGSGSGTDFTLTISSLEPEDFAVYYCQQRTNWPPVTFGPGTKVEIK",3.09,> 10,6.25,–
"ADI-15594 (antibody, V domains shown, IgG) VH: EVQLVESGGHLVQPGGSLRLSCAASGFTFSSYSMNWVRQAPGKGLEWISYISSSSSTMYYADSVKGRFTMSRDNAKNSLYLQMNSLRDEDTALYYCARDFPPINLAATTRNYYYYVMDVWGQGTTVTVSS VL: DIQLTQSPSSLSASVGDRVTITCRASQSISSYLNWYQQKPGKAPNLLIYATSNLKSGVPSRFSGSGSGTDFTLTISSLQPEDFATYYCQQSYSTSYTFGQGTKVDIK",–,3.28,3.25,0.549
"ADI-15592 (antibody, V domains shown, IgG; also called Antibody Number 159) VH: EVQLVESGGALVKPGGSLRLSCVGTGLTFTTAYMSWARQAPGKGLEWVGRIKSKSDGGTTEYPTPVKGRFTISRDESKNTLYLQMNSLKIEDTAVYYCTTDRGITARPIFDSWGQGTLVTVSS VL: QSVLTQPPSVSGALGRRVTISCTGSSSNIGAGYDVHWYRQLPGTAPKLLIYGNTKRPSGVPDRFSGSKYATSASLAITGLQAEDDADYYCQSYDGGLSGYVFGTGTQLTVL",–,20.9,12.3,48.2
"ADI-15596 (antibody, V domains shown, IgG) VH: EVQLVESGGALVKPGGSLRLSCVGTGLTFTTAYMSWARQAPGKGLEWVGRILSKSDGGTTDYPTPVKGRFTISRDESKNTLYLQMNSLKIEDTAVYYCTTDRGITARPIFDSWGQGTLVTVSS VL: QSVLTQPPSVSGALGRRVTISCTGSSSNIGAGYDVHWYRQLPGTAPKLLIYGNTKRPSGVPDRFSGSKYATSASLAITGLQADDDADYYCQSYDGGLSGYVFGTGTKVTVL",–,> 10,4.48,47.5
